The supplement of paper PMC10724198
± gives the standard deviation of the averaged measurements.

Tests used:
Saccharomyces cerevisiae [1] = assay: protein stability index of tFT-peptide fusion (C-terminal peptide) (PSI (0-1 scale)); higher = more stable (slower turnover)
Method: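 MPS profiling in S. cerevisiae of the tFT-X12 degron library: putative degron peptides plus stable controls, 12 aa, fused to the C-terminus of a sfGFP-mCherry timer. Cells are FACS-sorted into 8 mCherry/sfGFP bins and deep-sequenced. PSI runs from 0 (unstable) to 1 (stable). Backgrounds are wild type, das1Δ and doa10Δ at 30 °C, and wild type, das1Δ, cdc34-1 and cdc53-1 at 37 °C; 2-3 technical replicates each.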

Saccharomyces cerevisiae [2] = assay: as above; conditions: genetic background: wild type; temperature: 30 C
[3] = genetic background: cdc34-1, temperature: 37 C
[4] = genetic background: cdc53-1, temperature: 37 C
[5] = genetic background: das1 deletion, temperature: 30 C
[6] = genetic background: das1 deletion, temperature: 37 C
[7] = genetic background: doa10 deletion, temperature: 30 C
[8] = genetic background: wild type, temperature: 30 C
[9] = genetic background: wild type, temperature: 37 C
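Further: PSI is a weighted mean of sequencing reads over stability bins, variants kept only with over 10 reads, mCherry proximal and sfGFP distal, peptide attached via GGGS linker.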

| Sequence | protein stability index (Saccharomyces cerevisiae [1]; [3]) | protein stability index (Saccharomyces cerevisiae [1]; [4]) | protein stability index (Saccharomyces cerevisiae [1]; [5]) | protein stability index (Saccharomyces cerevisiae [1]; [6]) | protein stability index (Saccharomyces cerevisiae [1]; [7]) | protein stability index (Saccharomyces cerevisiae [1]; [8]) | protein stability index (Saccharomyces cerevisiae [1]; [9]) | protein stability index (Saccharomyces cerevisiae [2]) |
| --- | --- | --- | --- | --- | --- | --- | --- | --- |
| VCSRWFFVFVVR | 0.402 ± 0.033 | 0.424 ± 0.043 | 0.331 ± 0.035 | 0.523 ± 0.014 | 0.409 ± 0.014 | 0.291 ± 0.051 | 0.4917 ± 0.0013 | 0.388 ± 0.011 |
| VCVFFRLCIVWY | 0.061 ± 0.0092 | 0.101 ± 0.0031 | 0.127 ± 0.017 | 0.171 ± 0.0065 | 0.115 ± 0.013 | 0.103 ± 0.021 | 0.145 ± 0.012 | 0.174 ± 0.036 |
| VDGVSFFVVLLC | 0.406 ± 0.087 | 0.503 ± 0.0085 | 0.343 ± 0.029 | 0.537 ± 0.0077 | 0.189 ± 0.0091 | 0.198 ± 0.026 | 0.427 ± 0.0064 | 0.311 ± 0.036 |
| VDSTCLLITLLA | 0.534 ± 0.1 | 0.4893 ± 0.0016 | 0.348 ± 0.036 | 0.506 ± 0.0053 | 0.245 ± 0.0068 | 0.296 ± 0.023 | 0.456 ± 0.02 | 0.41 ± 0.0047 |
| VEIKSKRMLVVI | 0.5115 ± 0.0011 | 0.538 ± 0.039 | 0.426 ± 0.028 | 0.578 ± 0.0069 | 0.287 ± 0.013 | 0.322 ± 0.04 | 0.4749 ± 0.0012 | 0.45639 ± 0.00022 |
| VEQLLYIKATNV | 0.689 ± 0.012 | 0.7025 ± 0.0067 | 0.6088 ± 0.0057 | 0.7288 ± 0.0038 | 0.238 ± 0.029 | 0.29 ± 0.036 | 0.5062 ± 0.0015 | 0.408 ± 0.019 |
| VFDFVFHLRFVV | 0.336 ± 0.032 | 0.419 ± 0.0096 | 0.427 ± 0.028 | 0.468 ± 0.0082 | 0.091 ± 0.019 | 0.0905 ± 0.025 | 0.117 ± 0.011 | 0.1155 ± 0.00063 |
| VFFCLFVLFLSG | 0.302 ± 0.0038 | 0.397 ± 0.0068 | 0.264 ± 0.043 | 0.437 ± 0.0073 | 0.251 ± 0.0072 | 0.282 ± 0.015 | 0.408 ± 0.021 | 0.423 ± 0.18 |
| VFFGLYLVTFTS | 0.219 ± 0.036 | 0.302 ± 0.045 | 0.222 ± 0.026 | 0.379 ± 0.013 | 0.196 ± 0.015 | 0.202 ± 0.025 | 0.3575 ± 0.0028 | 0.409 ± 0.042 |
| VFFHFFVCWRFV | 0.184 ± 0.068 | 0.231 ± 0.013 | 0.25 ± 0.032 | 0.3646 ± 0.00069 | 0.0556 ± 0.014 | 0.0548 ± 0.018 | 0.0857 ± 0.0019 | 0.121 ± 0.019 |
| VFFLLSVYMVMM | 0.145 ± 0.018 | 0.29 ± 0.075 | 0.195 ± 0.055 | 0.3338 ± 0.0028 | 0.182 ± 0.03 | 0.184 ± 0.015 | 0.32 ± 0.02 | 0.307 ± 0.065 |
| VFFTSLPPLLRA | 0.433 ± 0.015 | 0.4543 ± 0.0034 | 0.372 ± 0.021 | 0.51 ± 0.01 | 0.341 ± 0.006 | 0.37 ± 0.032 | 0.486 ± 0.013 | 0.458 ± 0.0096 |
| VFIVVEFRLSLY | 0.122 ± 0.019 | 0.243 ± 0.074 | 0.174 ± 0.038 | 0.3023 ± 0.0029 | 0.1496 ± 0.0014 | 0.17 ± 0.0089 | 0.263 ± 0.0037 | 0.231 ± 0.073 |
| VFKLGWVLCVLL | 0.286 ± 0.027 | 0.386 ± 0.0098 | 0.286 ± 0.01 | 0.389 ± 0.011 | 0.152 ± 0.0011 | 0.165 ± 0.0049 | 0.3 ± 0.0072 | 0.208 ± 0.024 |
| VFLACSMTGGDA | 0.256 ± 0.029 | 0.326 ± 0.022 | 0.373 ± 0.067 | 0.27 ± 0.0086 | 0.413 ± 0.021 | 0.36 ± 0.049 | 0.264 ± 0.016 | 0.331 ± 0.022 |
| VFLDCCLRVFVD | 0.252 ± 0.016 | 0.379 ± 0.028 | 0.228 ± 0.032 | 0.424 ± 0.014 | 0.188 ± 0.014 | 0.222 ± 0.023 | 0.389 ± 0.012 | 0.312 ± 0.011 |
| VFLLFFFGLFVF | 0.348 ± 0.02 | 0.385 ± 0.0091 | 0.295 ± 0.037 | 0.418 ± 0.025 | 0.356 ± 0.043 | 0.314 ± 0.007 | 0.414 ± 0.035 | 0.415 ± 0.041 |
| VFLPVMVFFTFS | 0.337 ± 0.013 | 0.457 ± 0.066 | 0.277 ± 0.03 | 0.49592 ± 0.00031 | 0.255 ± 0.0082 | 0.282 ± 0.016 | 0.469 ± 0.016 | 0.4 ± 0.013 |
| VFRLLLFFVFVF | 0.266 ± 0.017 | 0.183 ± 0.068 | 0.287 ± 0.046 | 0.3848 ± 0.0031 | 0.279 ± 0.0075 | 0.236 ± 0.034 | 0.354 ± 0.015 | 0.37 ± 0.0056 |
| VGAVGVCILFVW | 0.203 ± 0.0086 | 0.356 ± 0.014 | 0.242 ± 0.044 | 0.424 ± 0.0061 | 0.195 ± 0.016 | 0.232 ± 0.042 | 0.43 ± 0.013 | 0.35 ± 0.038 |
